# Results reported in article PMC10560217, “Structural conservation of insulin/IGF signalling axis at the insulin receptors level in Drosophila and humans” (Nature Communications, 2023).
# Biological target: the molecule itself
# Assay: cryo-EM structure; equal volumes of 10 uM dmIR-ECD and 50 uM DILP5 (five-molar hormone excess) in 50 mM Tris, 150 mM NaCl, pH 7.4; reconstruction at 4.0 A
protein,measurement,value
"Drosophila insulin receptor ectodomain (dmIR-ECD) (domain or fragment, Drosophila melanogaster, UniProt P09208 264-1309, looked up, N-glycosylation at Asn606 (traces in the cryoEM reconstruction), a starting methionine was added in front; codon optimised; Asn335 is the first residue seen in the maps; Described as an (alpha-beta)2 homodimer; each protomer comes from one expressed precursor chain (alpha and beta subunits), protomers linked by disulfides; Mass used for ITC 233538 g/mol (the dimer); also called dmIR ectodomain; source: Sf9 cells, baculovirus, secreted into conditioned media, …) LPAHQQHLLHNDIADGLDKTALSVSGTQSRWTRSESNPTMRLSQNVKPCKSMDIRNMVSHFNQLENCTVIEGFLLIDLINDASPLNRSFPKLTEVTDYIIIYRVTGLHSLSKIFPNLSVIRGNKLFDGYALVVYSNFDLMDLGLHKLRSITRGGVRIEKNHKLCYDRTIDWLEILAENETQLVVLTENGKEKECRLSKCPGEIRIEEGHDTTAIEGELNASCQLHNNRRLCWNSKLCQTKCPEKCRNNCIDEHTCCSQDCLGGCVIDKNGNESCISCRNVSFNNICMDSCPKGYYQFDSRCVTANECITLTKFETNSVYSGIPYNGQCITHCPTGYQKSENKRMCEPCPGGKCDKECSSGLIDSLERAREFHGCTIITGTEPLTISIKRESGAHVMDELKYGLAAVHKIQSSLMVHLTYGLKSLKFFQSLTEISGDPPMDADKYALYVLDNRDLDELWGPNQTVFIRKGGVFFHFNPKLCVSTINQLLPMLASKPKFFEKSDVGADSNGNRGSCGTAVLNVTLQSVGANSAMLNVTTKVEIGEPQKPSNATIVFKDPRAFIGFVFYHMIDPYGNSTKSSDDPCDDRWKVSSPEKSGVMVLSNLIPYTNYSYYVRTMAISSELTNAESDVKNFRTNPGRPSKVTEVVATAISDSKINVTWSYLDKPYGVLTRYFIKAKLINRPTRNNNRDYCTEPLVKAMENDLPATTPTKKISDPLAGDCKCVEGSKKTSSQEYDDRKVQAGMEFENALQNFIFVPNIRKSKNGSSDKSDGAEGAALDSNAIPNGGATNPSRRRRDVALEPELDDVEGSVLLRHVRSITDDTDAFFEKDDENTYKDEEDLSSNKQFYEVFAKELPPNQTHFVFEKLRHFTRYAIFVVACREEIPSEKLRDTSFKKSLCSDYDTVFQTTKRKKFADIVMDLKVDLEHANNTESPVRVRWTPPVDPNGEIVTYEVAYKLQKPDQVEEKKCIPAADFNQTAGYLIKLNEGLYSFRVRANSIAGYGDFTEVEHIKVEPPPSYA",stoichiometry N,2
